Reference: article PMC4546420

Target: MBP-linker-MPR-TM (HIV-1) (UniProt P04578)
Test: SEC; Superdex-200 HR 10/300, 20 mM NaCl, 20 mM Tris-HCl pH 7.5, 0.015% beta-DDM; calibrated with protein standards; protein in beta-DDM micelles

For “MBP-linker-MPR-TM (from UniProt P04578 649-705) (domain or fragment)”, the stoichiometry N was > 6.
